In article PMC4564177:
pKi: −log10 of the molar value.

Experiments:
Test in all cases: fluorescence polarisation; competition set-up: constant concentration of isolated PSD95 PDZ domain and Cy5-labeled reference ligand titrated with the unlabeled CRHR1 peptide
[1] = target: isolated PDZ1 domain of PSD95 (UniProt P78352)
[2] = target: isolated PDZ1-2 tandem of PSD95 (UniProt P78352)
[3] = target: isolated PDZ2 domain of PSD95 (UniProt P78352)
[4] = target: isolated PDZ3 domain of PSD95 (UniProt P78352)
Sequence of isolated PDZ3 domain of PSD95 (P78352 whole entry, the tested form may be a part): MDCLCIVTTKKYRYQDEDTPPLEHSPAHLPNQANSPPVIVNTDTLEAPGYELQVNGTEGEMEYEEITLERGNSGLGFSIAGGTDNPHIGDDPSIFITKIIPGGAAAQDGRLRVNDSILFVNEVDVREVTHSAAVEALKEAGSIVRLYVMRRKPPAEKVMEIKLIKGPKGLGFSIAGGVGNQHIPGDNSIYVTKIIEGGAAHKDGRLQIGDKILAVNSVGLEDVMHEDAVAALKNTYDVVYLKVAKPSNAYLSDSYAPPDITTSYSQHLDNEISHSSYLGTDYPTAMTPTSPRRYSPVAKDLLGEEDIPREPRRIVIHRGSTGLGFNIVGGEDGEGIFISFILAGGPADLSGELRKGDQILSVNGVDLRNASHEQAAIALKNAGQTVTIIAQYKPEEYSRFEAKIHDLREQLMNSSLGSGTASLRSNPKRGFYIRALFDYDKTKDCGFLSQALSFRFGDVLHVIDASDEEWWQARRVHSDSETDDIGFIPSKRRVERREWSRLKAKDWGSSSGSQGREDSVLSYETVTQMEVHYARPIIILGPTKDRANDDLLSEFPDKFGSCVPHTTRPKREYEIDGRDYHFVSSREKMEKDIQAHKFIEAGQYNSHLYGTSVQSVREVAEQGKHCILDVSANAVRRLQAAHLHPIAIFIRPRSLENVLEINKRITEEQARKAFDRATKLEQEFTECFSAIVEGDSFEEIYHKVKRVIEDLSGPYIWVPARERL

Sequence of C-terminal 10 amino acids of CRHR1 (unlabeled CRHR1 peptide) (P35347 whole entry, looked up, tested part not stated): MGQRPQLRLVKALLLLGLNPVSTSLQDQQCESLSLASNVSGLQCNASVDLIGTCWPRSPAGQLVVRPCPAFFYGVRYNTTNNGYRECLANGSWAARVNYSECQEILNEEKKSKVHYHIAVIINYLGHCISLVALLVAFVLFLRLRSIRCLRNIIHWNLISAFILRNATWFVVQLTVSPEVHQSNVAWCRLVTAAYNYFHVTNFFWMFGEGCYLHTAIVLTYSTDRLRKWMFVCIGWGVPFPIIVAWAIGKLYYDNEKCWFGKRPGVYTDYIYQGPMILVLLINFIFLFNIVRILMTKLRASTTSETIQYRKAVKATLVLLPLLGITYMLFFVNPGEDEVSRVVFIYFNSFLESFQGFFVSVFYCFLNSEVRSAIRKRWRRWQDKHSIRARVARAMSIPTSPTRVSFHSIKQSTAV
Sequence of isolated PDZ2 domain of PSD95 (P78352 whole entry, the tested form may be a part): as the sequence (P78352 whole entry, the tested form may be a part) above
Sequence of isolated PDZ1 domain of PSD95 (P78352 whole entry, the tested form may be a part): as above
Sequence of isolated PDZ1-2 tandem of PSD95 (P78352 whole entry, the tested form may be a part): as above

C-terminal 10 amino acids of CRHR1 (unlabeled CRHR1 peptide) (from UniProt P35347 406-415)
pKi [1]: 4.11
pKi [2]: 4.62
pKi [3]: 4.72
pKi [4]: 4.32
